In US20190091326A1:

Assays:
[1] = target: A244 V1/V2 scaffold, wildtype, gD-tagged, produced in normal 293 HEK cells (herpes simplex virus 1; HIV-1 isolate A244) (UniProt Q69091); experiment: capture ELISA on 34.1 anti-gD; scaffold made in 293 cells
[2] = target: A244 V1/V2 scaffold, engineered, gD-tagged, produced in normal 293 HEK cells (herpes simplex virus 1; HIV-1 isolate A244) (UniProt Q69091); experiment: ELISA; table row A244 V1/V2.eng1*, column 293
[3] = target: A244 V1/V2 scaffold, engineered, Strep-tag/6x Histidine-tag, produced in normal 293 cells (HIV-1 isolate A244); experiment: SPR (Biacore 3000), PG9 captured by anti-human Fc, scaffold flowed
[4] = target: A244 V1/V2 scaffold, wildtype (unmutated), Strep-tag/6x Histidine-tag, expressed in GnTI- cells (HIV-1 isolate A244); experiment: as above
[5] = target: 108060-I169K V1/V2 scaffold, gD-tagged, produced in GnTI- 293 HEK cells (herpes simplex virus 1; HIV-1 isolate 108060); experiment: ELISA; table row 108060 V1/V2 I169K, GnTI-
[6] = target: 108060 I169K/E172V/T161M/N156I V1/V2 scaffold, gD-tagged, produced in GnTI- 293 HEK cells (herpes simplex virus 1; HIV-1 isolate 108060); experiment: ELISA; table row 108060 I169K/E172V/T161M/N156I, GnTI-
[7] = target: JRFL-E168K V1/V2 scaffold, engineered, gD-tagged, produced in GnTI- 293 HEK cells (herpes simplex virus 1; HIV-1 isolate JRFL); experiment: ELISA; table row JRFL-E168K V1/V2.eng1*, GnTI-
[8] = target: 1209 V1/V2/V3/C3 scaffold grown in GnTI- cells; experiment: ELISA, mAb titrated on scaffold, absorbance 492 nm; curve 505 (1209 GNTI-)
[9] = target: JRFL-E168K V1/V2 scaffold, engineered, gD-tagged, produced in GnTI- 293 HEK cells (herpes simplex virus 1; HIV-1 isolate JRFL); experiment: capture ELISA on 34.1 anti-gD; purified scaffold made in GnTI- cells
[10] = target: 108060 I169K/E172V/T161M/N156I/S164P/L165G V1/V2 scaffold, gD-tagged, produced in GnTI- 293 HEK cells (herpes simplex virus 1; HIV-1 isolate 108060); experiment: as above
[11] = target: 108060 I169K/E172V/T161M/N156I/S164G/D167G V1/V2 scaffold, gD-tagged, produced in GnTI- 293 HEK cells (herpes simplex virus 1; HIV-1 isolate 108060); experiment: as above
[12] = target: MN V1/V2 scaffold, engineered, gD-tagged, produced in GnTI- 293 HEK cells (herpes simplex virus 1; HIV-1 isolate MN); experiment: as above
[13] = target: MN V1/V2 scaffold, wildtype, gD-tagged, produced in GnTI- 293 HEK cells (herpes simplex virus 1; HIV-1 isolate MN) (UniProt Q69091); experiment: ELISA; table row MN V1/V2 wt, GnTI-
[14] = target: 108060 V1/V2 scaffold, wildtype, gD-tagged, produced in normal 293 HEK cells (herpes simplex virus 1; HIV-1 isolate 108060); experiment: ELISA; table row 108060 V1/V2 wt, column 293
[15] = target: 108060 I169K/E172V/T161M/N156I/S164P/L165G V1/V2 scaffold, gD-tagged, produced in GnTI- 293 HEK cells (herpes simplex virus 1; HIV-1 isolate 108060); experiment: ELISA; table row 108060 V1/V2.eng2**, GnTI-
[16] = target: JRFL-E168K V1/V2 scaffold, wildtype, gD-tagged, produced in normal 293 HEK cells (herpes simplex virus 1; HIV-1 isolate JRFL) (UniProt Q69091); experiment: ELISA; table row JRFL-E168K V1/V2 wt, column 293
[17] = target: 108060 V1/V2 scaffold, wildtype, gD-tagged, produced in GnTI- 293 HEK cells (herpes simplex virus 1; HIV-1 isolate 108060); experiment: ELISA; table row 108060 V1/V2 wt, GnTI-
[18] = target: JRFL-E168K V1/V2 scaffold, engineered, gD-tagged, produced in normal 293 HEK cells (herpes simplex virus 1; HIV-1 isolate JRFL); experiment: capture ELISA on 34.1 anti-gD; purified scaffold made in 293 cells
[19] = target: ZM233 V1/V2 scaffold, engineered, gD-tagged, produced in normal 293 HEK cells (herpes simplex virus 1; HIV-1 isolate ZM233); experiment: as above
[20] = target: A244 V1/V2 scaffold, engineered, gD-tagged, produced in normal 293 HEK cells (herpes simplex virus 1; HIV-1 isolate A244) (UniProt Q69091); experiment: as above
[21] = target: MN V1/V2 scaffold, engineered, gD-tagged, produced in normal 293 HEK cells (herpes simplex virus 1; HIV-1 isolate MN); experiment: as above
[22] = target: 108060 I169K/E172V/T161M/N156I/S164G/D167G V1/V2 scaffold, gD-tagged, produced in normal 293 HEK cells (herpes simplex virus 1; HIV-1 isolate 108060); experiment: as above
A244 V1/V2.eng1 (GnTI-) = experiment: ELISA; table row A244 V1/V2.eng1*, GnTI-
[23] = target: JRFL-E168K V1/V2 scaffold, engineered, gD-tagged, produced in normal 293 HEK cells (herpes simplex virus 1; HIV-1 isolate JRFL); experiment: ELISA; table row JRFL-E168K V1/V2.eng1*, column 293

With PG9 monoclonal antibody the EC50 [1] was 0.893 µg/mL, the EC50 [2] was 0.099 µg/mL and the koff [3] was 0.0019 s⁻¹. It also gave a koff [4] of 0.00077 s⁻¹, an EC50 [5] of 0.679 µg/mL and an EC50 [6] of 0.0281 µg/mL. The EC50 [7] was 0.013 µg/mL, the EC50 [8] was 0.14 µg/mL and the EC50 [9] was 0.013 µg/mL. The EC50 [10] was 0.00834 µg/mL, the EC50 [11] was 0.0068 µg/mL and the EC50 [12] was 0.0079 µg/mL. The EC50 [13] was > 10 µg/mL, the EC50 [14] was > 10 µg/mL and the EC50 [15] was 0.00834 µg/mL. The EC50 [16] was > 10 µg/mL, the EC50 [17] was > 10 µg/mL and the EC50 [18] was 0.0473 µg/mL. For the same substance, the EC50 [19] was 0.00227 µg/mL, the EC50 [20] was 0.0991 µg/mL and the EC50 [21] was 0.0274 µg/mL. For the same substance, the EC50 [22] was 0.093 µg/mL, the EC50 (A244 V1/V2.eng1 (GnTI-)) was 0.00406 µg/mL and the EC50 [23] was 0.0473 µg/mL.
